Experimental data taken from US10421803 (dated 2019).

Molecular target: HIV-1 YU2 gp120 (HIV-1, UniProt P35961)
Experiment: SPR, bivalent

Sequence of HIV-1 YU2 gp120 (P35961 32-671): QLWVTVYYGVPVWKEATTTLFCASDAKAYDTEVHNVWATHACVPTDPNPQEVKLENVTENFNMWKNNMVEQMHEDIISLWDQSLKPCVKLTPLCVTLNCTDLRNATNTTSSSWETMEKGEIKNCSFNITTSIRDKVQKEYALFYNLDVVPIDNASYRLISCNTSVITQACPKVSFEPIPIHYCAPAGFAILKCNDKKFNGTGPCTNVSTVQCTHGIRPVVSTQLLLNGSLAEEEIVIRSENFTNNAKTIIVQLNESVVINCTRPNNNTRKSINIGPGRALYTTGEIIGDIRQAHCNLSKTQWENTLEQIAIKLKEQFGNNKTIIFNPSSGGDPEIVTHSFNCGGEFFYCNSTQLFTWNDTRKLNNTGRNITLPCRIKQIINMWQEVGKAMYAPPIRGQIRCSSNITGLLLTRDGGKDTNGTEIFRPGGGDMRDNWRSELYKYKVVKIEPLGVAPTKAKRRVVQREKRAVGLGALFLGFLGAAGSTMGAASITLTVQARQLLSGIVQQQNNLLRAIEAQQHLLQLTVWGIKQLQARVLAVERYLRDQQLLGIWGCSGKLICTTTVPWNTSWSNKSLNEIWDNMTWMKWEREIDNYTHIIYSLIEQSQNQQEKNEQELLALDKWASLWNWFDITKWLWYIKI

B1: 8ANC195 IgG (antibody, V domains shown)
VH: QIHLVQSGTEVKKPGSSVTVSCKAYGVNTFGLYAVNWVRQAPGQSLEYIGQIWRWKSSASHHFRGRVLISAVDLTGSSPPISSLEIKNLTSDDTAVYFCTTTSTYDKWSGLHHDGVMAFSSWGQGTLISVSA
VL: DIQMTQSPSTLSASIGDTVRISCRASQSITGNWVAWYQQRPGKAPRLLIYRGAALLGGVPSRFSGSAAGTDFTLTIGNLQAEDFGTFYCQQYDTYPGTFGQGTKVEV
- Kd: 82 nM
